Series [1] addresses T1, VEGF-165 (UniProt P15692-4 27-191). The series can be described thus: competition; displaces fC; 50 nM VEGF-165; PBS + 0.005% Tween 20, pH 7.4 (+50 mM KCl for aptamer B); 2.5 nM aptamer heated at 90 C and cooled, 1 h incubation (temperature not stated, RT?); 7.5% PAGE in 0.5x TB pH 8.3 at 4 C. As to conditions: protein: recombinant; tags: His-tag; chain copies: 2.
For series [2], the target named is T1, VEGF-165. The series can be described thus: EMSA; middle + top bands combined; PBS + 0.005% Tween 20, pH 7.4 (+50 mM KCl for aptamer B); 2.5 nM aptamer heated at 90 C and cooled, 1 h incubation (temperature not stated, RT?); 7.5% PAGE in 0.5x TB pH 8.3 at 4 C. As to conditions: protein: recombinant; tags: His-tag; chain copies: 2; label: 5' fluorescein.
In series [3] the target is T1, VEGF-165. As to the kind of experiment: EMSA; top band only (1 aptamer:2 protein), apparent; PBS + 0.005% Tween 20, pH 7.4 (+50 mM KCl for aptamer B); 2.5 nM aptamer heated at 90 C and cooled, 1 h incubation (temperature not stated, RT?); 7.5% PAGE in 0.5x TB pH 8.3 at 4 C. The settings on record: protein: recombinant; tags: His-tag; chain copies: 2; label: 5' fluorescein.

In series [4] the target is T1, VEGF-165. As to the kind of experiment: EMSA; PBS + 0.005% Tween 20, pH 7.4 (+50 mM KCl for aptamer B); 2.5 nM aptamer heated at 90 C and cooled, 1 h incubation (temperature not stated, RT?); 7.5% PAGE in 0.5x TB pH 8.3 at 4 C. The settings on record: protein: recombinant; tags: His-tag; chain copies: 2; label: 5' fluorescein.
The target of series [5] is T1, VEGF-165. The series can be described thus: EMSA; 10 nM VEGF-165; PBS + 0.005% Tween 20, pH 7.4 (+50 mM KCl for aptamer B); 2.5 nM aptamer heated at 90 C and cooled, 1 h incubation (temperature not stated, RT?); 7.5% PAGE in 0.5x TB pH 8.3 at 4 C. As to conditions: protein: recombinant; tags: His-tag; chain copies: 2; label: 5' fluorescein.
In series [6] the target is T1, VEGF-165. Described as above. As to conditions: protein: recombinant; tags: His-tag; chain copies: 2; label: 5' fluorescein. The source holds these as a separate data set.
The target in series [7] is VEGF-121 (UniProt P15692-9 27-147). As to the kind of experiment: EMSA; up to 333.3 nM VEGF-121; PBS + 0.005% Tween 20, pH 7.4 (+50 mM KCl for aptamer B); 2.5 nM aptamer heated at 90 C and cooled, 1 h incubation (temperature not stated, RT?); 7.5% PAGE in 0.5x TB pH 8.3 at 4 C. As to conditions: protein: recombinant; tags: His-tag; chain copies: 2; label: 5' fluorescein.

Series [8] concerns the target T1, VEGF-165. The series can be described thus: competition; displaces fA; 10 nM VEGF-165; PBS + 0.005% Tween 20, pH 7.4 (+50 mM KCl for aptamer B); 2.5 nM aptamer heated at 90 C and cooled, 1 h incubation (temperature not stated, RT?); 7.5% PAGE in 0.5x TB pH 8.3 at 4 C. As to conditions: protein: recombinant; tags: His-tag; chain copies: 2.
The target in series [9] is T1, VEGF-165. As to the kind of experiment: EMSA; curve superimposed on AT10C; PBS + 0.005% Tween 20, pH 7.4 (+50 mM KCl for aptamer B); 2.5 nM aptamer heated at 90 C and cooled, 1 h incubation (temperature not stated, RT?); 7.5% PAGE in 0.5x TB pH 8.3 at 4 C. The settings on record: protein: recombinant; tags: His-tag; chain copies: 2; label: 5' fluorescein.

T1 sequence (P15692 other isoform, or with tags, fused parts or gaps): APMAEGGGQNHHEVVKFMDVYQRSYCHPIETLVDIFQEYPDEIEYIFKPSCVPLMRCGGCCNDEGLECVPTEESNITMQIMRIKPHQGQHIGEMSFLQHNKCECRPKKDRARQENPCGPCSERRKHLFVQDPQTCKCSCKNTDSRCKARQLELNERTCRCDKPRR
Chain of VEGF-121 (P15692 other isoform, or with tags, fused parts or gaps): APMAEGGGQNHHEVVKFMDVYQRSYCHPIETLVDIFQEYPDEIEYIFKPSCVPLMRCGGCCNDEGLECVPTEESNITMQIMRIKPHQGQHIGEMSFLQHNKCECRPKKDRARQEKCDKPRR

B1: nfCT100 (structured_DNA)
DNA: CAATTGGGCCCGTCCGTATGGTGGGTTTTTTTTTTTTTTTTTTTTTTTTTTTTTTTTTTTTTTTTTTTTTTTTTTTTTTTTTTTTTTTTTTTTTTTTTTTTTTTTTTTTTTTTTTTTTTTTTT
Regarding B1, in series [1], the binding result is “binds”.

B2: AT20A (structured_DNA)
DNA: GCCCGTCTTCCAGACAAGAGTGCAGGGCTTTTTTTTTTTTTTTTTTTTGCCCGTCTTCCAGACAAGAGTGCAGGGC
In the case of B2, the Kd in series [2] was determined as 5.5 ± 0.9 nM; in series [3] it was 145 ± 11.6 nM.

B3: AT60A (structured_DNA)
DNA: GCCCGTCTTCCAGACAAGAGTGCAGGGCTTTTTTTTTTTTTTTTTTTTTTTTTTTTTTTTTTTTTTTTTTTTTTTTTTTTTTTTTTTTGCCCGTCTTCCAGACAAGAGTGCAGGGC
Take B3: the Kd in [4] was determined as 7 ± 1.5 nM.

B4: CT20C (structured_DNA)
DNA: CAATTGGGCCCGTCCGTATGGTGGGTTTTTTTTTTTTTTTTTTTTTCAATTGGGCCCGTCCGTATGGTGGGT
As for B4, the binding signal in series [5] was around 0.35 fraction bound.

B5: CT10A (structured_DNA)
DNA: CAATTGGGCCCGTCCGTATGGTGGGTTTTTTTTTTTGCCCGTCTTCCAGACAAGAGTGCAGGGC
As for B5, the binding result in series [6] is “binds”.

B6: CT20A (structured_DNA)
DNA: CAATTGGGCCCGTCCGTATGGTGGGTTTTTTTTTTTTTTTTTTTTTGCCCGTCTTCCAGACAAGAGTGCAGGGC
B6: the binding result in series [6] was “binds”.

B7: fA (+5'GC+3'C) (structured_DNA)
DNA: GCCCGTCTTCCAGACAAGAGTGCAGGGC
Consider B7, for which the Kd in series [4] was 9.9 ± 1.3 nM. In addition, the binding result in series [7] was “no binding”.

B8: CT0C (structured_DNA)
DNA: CAATTGGGCCCGTCCGTATGGTGGGTCAATTGGGCCCGTCCGTATGGTGGGT
Take B8: the binding signal in series [5] was around 0.35 fraction bound. In addition, the Kd in [2] turned out to be 13.6 ± 2.7 nM; in series [3] it was 74.8 ± 3.5 nM.

B9: CT30A (structured_DNA)
DNA: CAATTGGGCCCGTCCGTATGGTGGGTTTTTTTTTTTTTTTTTTTTTTTTTTTTTTTGCCCGTCTTCCAGACAAGAGTGCAGGGC
B9: the binding result in series [6] is reported as “binds”.

B10: nfAT100 (structured_DNA)
DNA: GCCCGTCTTCCAGACAAGAGTGCAGGGCTTTTTTTTTTTTTTTTTTTTTTTTTTTTTTTTTTTTTTTTTTTTTTTTTTTTTTTTTTTTTTTTTTTTTTTTTTTTTTTTTTTTTTTTTTTTTTTTTTTT
Take B10: in series [8], the binding result was “binds”.

B11: AT20C (structured_DNA)
DNA: GCCCGTCTTCCAGACAAGAGTGCAGGGCTTTTTTTTTTTTTTTTTTTTCAATTGGGCCCGTCCGTATGGTGGGT
With B11, the binding result in series [6] was “binds”.

B12: AT60C (structured_DNA)
DNA: GCCCGTCTTCCAGACAAGAGTGCAGGGCTTTTTTTTTTTTTTTTTTTTTTTTTTTTTTTTTTTTTTTTTTTTTTTTTTTTTTTTTTTTCAATTGGGCCCGTCCGTATGGTGGGT
On to B12, for which, in series [9], the binding result was “binds”.

B13: CT30C (structured_DNA)
DNA: CAATTGGGCCCGTCCGTATGGTGGGTTTTTTTTTTTTTTTTTTTTTTTTTTTTTTTCAATTGGGCCCGTCCGTATGGTGGGT
For the molecule B13, the binding signal in series [5] was around 0.35 fraction bound.

B14: fC (SL2-B) (structured_DNA)
DNA: CAATTGGGCCCGTCCGTATGGTGGGT
Take B14: in [4], the Kd is 37.9 ± 14 nM.

B15: CT60C (structured_DNA)
DNA: CAATTGGGCCCGTCCGTATGGTGGGTTTTTTTTTTTTTTTTTTTTTTTTTTTTTTTTTTTTTTTTTTTTTTTTTTTTTTTTTTTTTCAATTGGGCCCGTCCGTATGGTGGGT
Regarding B15, the Kd in series [4] stood at 22.4 ± 1 nM.

B16: AT30C (structured_DNA)
DNA: GCCCGTCTTCCAGACAAGAGTGCAGGGCTTTTTTTTTTTTTTTTTTTTTTTTTTTTTTCAATTGGGCCCGTCCGTATGGTGGGT
In the case of B16, in series [6], the binding result is on record as “binds”.

B17: AT10C (structured_DNA)
DNA: GCCCGTCTTCCAGACAAGAGTGCAGGGCTTTTTTTTTTCAATTGGGCCCGTCCGTATGGTGGGT
In the case of B17, the Kd in [2] came to 12.1 ± 1.9 nM; in [3], 87.3 ± 4.9 nM.

B18: AT0C (structured_DNA)
DNA: GCCCGTCTTCCAGACAAGAGTGCAGGGCCAATTGGGCCCGTCCGTATGGTGGGT
B18: in [6], the binding result was “binds”.

B19: CT10C (structured_DNA)
DNA: CAATTGGGCCCGTCCGTATGGTGGGTTTTTTTTTTTCAATTGGGCCCGTCCGTATGGTGGGT
Consider B19, for which, in [5], the binding signal is around 0.35 fraction bound.

B20: CT0A (structured_DNA)
DNA: CAATTGGGCCCGTCCGTATGGTGGGTGCCCGTCTTCCAGACAAGAGTGCAGGGC
In the case of B20, the binding result in series [6] is reported as “binds”.

For the origin of these results see PMC6883073, “Unraveling Determinants of Affinity Enhancement in Dimeric Aptamers for a Dimeric Protein”.
